The text below walks through data of paper PMC7391724 (Scientific Reports, 2020).

Series [1] is described as follows: Plasma protein binding (ultrafiltration), across all species. In kind it is in vitro ADME. The note with it: rat, mouse, dog, human, 37 °C, read-out: plasma protein binding, range across all species. The procedure:
(§1) Plasma ultrafiltration was used for determination of free and protein bound fractions of EC2629 and EC2491. Samples were extracted and analyzed using fit-for-purpose bioanalytical methods. Briefly, 500 nM EC2629 or EC2491 was spiked into plasma maintained at 37 °C prior to plasma ultrafiltration. Plasma spiked with 500 nM EC2629 or EC2491 was allowed to equilibrate at 37 °C for 30 min prior to processing. Next, 50 μL of plasma was transferred to a clean 1.2 mL plate stored at 2–8 °C for further processing. The remaining plasma sample volumes were transferred to 30 Kd MWCO PES filter to generate plasma ultrafiltrate by centrifugation at 10,000×g for 20 min. After which, 50 μL of each plasma ultrafiltrate was transferred to separate wells in a clean 1.2 mL plate. To all spiked plasma samples, 50 μL of blank plasma ultrafiltrate was added. 50 μL of blank plasma was added to all experimental ultrafiltrate samples. These blank matrix additions normalized the matrix effects for protein binding determination. Samples were then extracted using protein precipitation with a 3:1 ratio of acetonitrile after addition of internal standard. The supernatant transferred to a new plate, evaporated, and reconstituted prior to LC–MS/MS analysis.

Series [2] in a line: Whole blood stability, dog. The note with it: 37 °C, after two hours, read-out: percent remaining in whole blood. In kind it is in vitro ADME. The procedure:
(§2) Whole blood and plasma stability were determined for EC2629 and EC2491 at a concentration of 500 nM. Samples were extracted and analyzed using fit-for-purpose bioanalytical methods. EC2629 or EC2491 was spiked into 1 mL whole blood or plasma maintained at 37 °C for 30 min prior to use . Fifty µl aliquots were then removed at defined timepoints and stored in a 1.2 mL extraction plate prior to analysis. Samples were then extracted using protein precipitation with a 3:1 ratio of acetonitrile after addition of internal standard. The supernatant was then transferred to a new plate, evaporated, and reconstituted prior to LC–MS/MS analysis.

Series [3] can be described thus: Whole blood stability, human. The note with it: 500 nM, 37 °C, two hours, human blood. In kind it is in vitro ADME. The procedure: as §2
The subject of series [4] is KB tumor xenografts. In words: KB tumor xenograft in nu/nu rats. Format: in vivo. The note with it: EC2629 0.15 µmol/kg iv SIW x 2 weeks. The procedure:
Four- to eight-week-old female nu/nu mice and rats (Harlan Sprague Dawley, Inc.), were maintained on a standard 12-h light–dark cycle and fed ad libitum with a low-folate chow (Harlan Teklad diet #TD.01013, Madison, WI) for the duration of dosing and 1 week post dosing schedule. Mice and rats were then switched to Teklad Global 18% Rodent diet (Harlan Teklad diet #2018S) during the monitoring phase of the study. Parental KB, KB-CR2000 or KB-PR10 cells (1 × 10^6/100 µL per nu/nu mouse and 5 × 10^6/200 µL per nu/nu rat) were injected into the subcutis of the dorsal medial area. Mice were divided into groups of 5 and rats in groups of 3–4, and freshly prepared test articles were injected through the lateral tail vein under sterile conditions in a volume of 200 μL/20 g of PBS. […]
Animals in the control groups received no treatment. […] Tumors were measured in two perpendicular directions using Vernier calipers, and their volumes were calculated as V = 0.5 × L × W^2, where L = measurement of longest axis in mm and W = measurement of axis perpendicular to L in mm[16]. As a general measure of gross toxicity, changes in body weights were determined on the same schedule as tumor volume measurements. Survival of animals was monitored daily. […]

A short description of series [5]: Plasma stability, human. The note with it: 500 nM, 37 °C, 2 h. Format: in vitro ADME. The procedure:
as §2

Series [6] can be described thus: Plasma protein binding (ultrafiltration), human. In kind it is in vitro ADME. The note with it: 37 °C. The procedure: as §1

The term amount remaining denotes the share of the starting amount still present when the sample was taken. On to `C=C1C[C@H]2C=Nc3cc(OCCCCCOc4cc(N)c(C(=O)N5CC(=C)C[C@H]5C5OCCN5C(=O)OCC(C)(C)SSCCC(=O)NCCNC(=O)CCOCCOCCOCCOCCNC(=O)CCN5C(=O)CC(SC[C@H](NC(=O)[C@H](CC(=O)O)NC(=O)[C@H](CC(=O)O)NC(=O)[C@H](CCCNC(=N)N)NC(=O)[C@H](CC(=O)O)NC(=O)CC[C@H](NC(=O)c6ccc(NCc7cnc8nc(N)[nH]c(=O)c8n7)cc6)C(=O)O)C(=O)O)C5=O)cc4OC)c(OC)cc3C(=O)N2C1` (stereo partly drawn) [EC2629], for which the fraction unbound at 30 min, 500 nM in series [1] is 0.026 to 0.128; in series [6], 0.128. Moreover, the share remaining at 2 h, 500 nM in series [2] was 75.8%. In series [3], the whole blood stability result is on record as “no observed degradation”. The body weight change result in series [4] is listed as “did not lose any significant weight”. Also, the plasma stability result in series [5] is “stable”.
